# In patent publication US7847064B2, “Methods and compositions for regulating gene expression in plant cells” (Donald Danforth Plant Science Center, priority 2004, dated 2010):
# B1: RF2a-ΔPΔA: RF2a mutant, proline-rich and acidic domains removed, SEQ ID NO:70 (protein)
# chain: MSSSAAAHGARPKHQHSLSMDESMSIKAEELVGASPGTEGMSSAEAKKAVSAVKLAELALVDPKRAKRIWANRQSAARSKERKMRYIAELERKVQTLQTEATTLSAQLALLQRDTSGLTTENSELKLRLQTMEQQVHLQDALNDTLKSEVQRLKVATGQMANGGGMMMNFGGMPHQFGGNQQMFQNNQAMQSMLAAHQLQQLQLHPQAQQQQVLHPQHQQQQPLHPLQAQQLQQAARDLKMKSPMGGQSQWGDGKSGSSGN
# modifications: This sequence was artificially derived and/or created by the inventors.
# B2: RF2a-ΔPΔQ: RF2a mutant, proline- and glutamine-rich domains removed, SEQ ID NO:71 (protein)
# chain: MGHRRAHSEILSLPEDLDLCAAGGGDGPSLSDENDEELFSMFLDVEKLNSTCGASSEAEAESSSAAAHGARPKHQHSLSMDESMSIKAEELVGASPGTEGMSSAEAKKAVSAVKLAELALVDPKRAKRIWANRQSAARSKERKMRYIAELERKVQTLQTEATTLSAQLALLQRDTSGLTTENSELKLRLQTMEQQVHLQDALNDTLKSEVQRLKVATGQMANGGGMMMNFGGMPHQ
# modifications: This sequence was artificially derived and/or created by the inventors.
# B3: RF2a-3Δ: RF2a mutant, glutamine-rich, proline-rich and acidic domains removed, SEQ ID NO:72 (protein)
# chain: MSSSAAAHGARPKHQHSLSMDESMSIKAEELVGASPGTEGMSSAEAKKAVSAVKLAELALVDPKRAKRIWANRQSAARSKERKMRYIAELERKVQTLQTEATTLSAQLALLQRDTSGLTTENSELKLRLQTMEQQVHLQDALNDTLKSEVQRLKVATGQMANGGGMMMNFGGMPHQ
# modifications: This sequence was artificially derived and/or created by the inventors.
# Assays:
# Box IIm1 element = assay: Electrophoretic mobility shift assay; format: binding; conditions: 100 ng purified protein, 32P-labeled Box IIm1 DNA probe
# Procedure: The purified mutant proteins were then analyzed by SDS-PAGE to confirm that each protein was its expected size (FIG. 16(B)). To confirm that each of the mutant proteins bind to the DNA target, i.e., the Box II element and/or its operational derivatives, gel mobility shift assays were carried out with the purified recombinant proteins (FIG. 16(C)). The electrophoretic mobility shift assays were carried out essentially as described in Yin and Beachy (1995). 100 ng of proteins purified from the transformed E. coli were incubated with ^32P-labeled Box IIm1 DNA probe followed by electrophoresis in a 5% acrylamide gel (Yin et al., 1997) (FIG. 16(C)).
# pBII-48Ca::GUS = assay: Transactivation of pBII-48Ca::GUS by RF2a and RF2a mutants in BY-2 protoplasts; format: cell-based, tobacco; conditions: co-transfected with pBII-48Ca::GUS, 24 hours after electroporation, normalized with GFP
# Procedure: The relative activity of RF2a and the RF2a mutants (described in Example 8) was then measured. First, a chimeric promoter was developed with a single copy of the Box II element fused to the 5′ end of a minimal CaMV 35S promoter comprising nucleotides −48 to +8 (SEQ ID NO:66). The chimeric promoter was ligated to the uidA coding sequence to create the reporter pBII-48Ca::GUS.
# To analyze the function of the several domains of RF2a, effectors were created by inserting coding sequences of RF2a or the mutants of RF2a (described in Example 8) downstream of the enhanced CaMV 35S promoter in the pMON999 vector (a gift from Monsanto Company, St. Louis, Mo.). The resultant constructs, p35S::RF2a, p35S::RF2a-ΔP, p35S::RF2a-ΔQ, p35S::RF2a-ΔPΔA, p35S::RF2a-ΔPΔQ and p35S::RF2a-3Δ, were co-transfected into BY-2 protoplasts with pBII-48Ca::GUS (FIG. 17(A)). Plasmid pCat-GFP, in which the GFP gene was driven by CaMV 35S promoter, was co-introduced to serve as an internal control. The following describes, in greater detail, the construction of these vectors and the methods employed in transfecting the same into BY-2 protoplasts.
# Plasmids for protoplast transfection—The coding sequences for mutants of RF2a were released from pET28a-derived plasmids and cloned into the plant expression vector pMON999 (a gift from Monsanto Company, St. Louis, Mo.) to place each gene downstream of an enhanced CaMV 35S promoter, followed by a nopaline synthase terminator sequence. The resulting effector constructs were named p35S::RF2a, p35S::RF2a-ΔP, p35S::RF2a-ΔQ, p35S::RF2a-ΔPΔA, p35S::RF2a-ΔPΔQ and p35S::RF2a-3Δ. The reporter gene construct, pBII-48Ca::GUS, was built using PCR to introduce the Box II element into a minimal CaMV 35S promoter comprising nucleotides −48 to +8 with primers BII-48Ca 5′ (SEQ ID NO:53) (which contained the Box II element) and GUS 3′ (SEQ ID NO:36) using a p35S:GUS plasmid as template. The PCR product was restricted with HindIII and NcoI, and the resulting fragment was inserted into p35S::GUS to replace the original 35S promoter.
# Transfection of tobacco BY-2 protoplasts—The protoplasts were isolated from tobacco cell line BY-2 as described by Watanabe et al. (1987). Approximately one million protoplasts were transfected by electroporation with 20 μg of effector construct DNA, 15 μg of herring sperm DNA, 2.5 μg of reporter gene construct DNA, and 15 μg of pCat-GFP DNA. In samples with reporter gene alone, the total amount of DNA was adjusted by adding 20 μg of herring sperm carrier DNA. The electroporation parameters used were 300 V and 250 microfarads with the Bio-Rad electroporation system (Bio-Rad Laboratories, Hercules, Calif.). Protoplast samples were cultured in Murashige and Skoog medium with 0.4 M mannitol, pH 5.8, at 28° C. The protoplasts were collected 24 hours after electroporation.
# [1] = tested on: Nicotiana tabacum cv. Xanthi NN; assay: Phenotype of transgenic tobacco plants overexpressing RF2a or RF2a mutants; format: in vivo; conditions: for phenotype of transgenic tobacco plants: CaMV 35S promoter driven, T1 generation, greenhouse; for cross-sections of the stem of transgenic plants: two-month old tobacco, toluidine blue O
# Text: (Yin et al., 1997; Petruccelli et al., 2001). […] Fifteen or more independent transgenic tobacco lines were developed with the constructs described below through Agrobacterium-mediated transformation.
# Plasmids for Agrobacterium-mediated transformation—The fusion genes described above relating to the plant expression constructs comprising RF2a deletion mutants were released from pMON999-derived plasmids using NotI (blunted) and cloned into the binary vector pGA-E::GUS (Petruccelli et al., 2001) using the blunt HindIII site (downstream of a CaMV 35S promoter sequence). The final plasmids were named pGA-E::GUS/P-35S::ΔP, pGA-E::GUS/P-35S::ΔQ, pGA-E::GUS/P-35S::ΔPΔA and pGA-E::GUS/P-35S::ΔPΔQ. A plasmid encoding full-length RF2a, p35S::RF2a, was also constructed using the methods described herein.
# Tobacco transformation—the plasmids described above were introduced into Agrobacterium tumefaciens strain LBA4404 and used for tobacco transformation. Leaf discs from Nicotiana tabacum cv. Xanthi NN were transformed with the various plasmids following the protocol of Horsch et al. (1988). At least 15 independent transgenic lines were produced with each gene construct. Transgenic plants were self-fertilized, and T1 seeds were collected. The T1 seeds were germinated on Murashige and Skoog medium (Murashige and Skoog, 1962) with kanamycin (100 mg/L) selection, and Kan^r seedlings were grown in a greenhouse for observation.
# The phenotype caused by 35S::RF2a-ΔPΔA was similar to, but less severe than, the phenotype caused by 35S::RF2a-3Δ. […] (FIG. 19(C)).
molecule,measurement,setting,value
B1,binding in gel mobility shift assay,Box IIm1 element,bind to the Box IIm1 element
same,activation function (relative GUS activity),pBII-48Ca::GUS,dropped to near basal level
same,phenotype of transgenic tobacco plants,[1],severe stunting phenotype
same,phenotype of transgenic tobacco plants,[1]; listed as 35S::RF2a-ΔPΔA,mild to severe stunting with curved leaves and substantial delay in flowering times
same,"independent transgenic lines with stunting, curved leaves and delayed flowering",[1]; T1 generation tobacco,11 of 15
same,internodal elongation of transgenic plants,[1]; transgenic tobacco,strongly repressed
same,cross-sections of the stem of transgenic plants,[1],xylem of stunted plants was not uniformly lignified and that phloem development was altered
B2,binding in gel mobility shift assay,Box IIm1 element,bind to the Box IIm1 element
same,activation function (relative GUS activity),pBII-48Ca::GUS,greater than that of full-length RF2a
same,phenotype of transgenic tobacco plants,[1],did not exhibit abnormal phenotypes
B3,binding in gel mobility shift assay,Box IIm1 element,bind to the Box IIm1 element
same,activation function (relative GUS activity),pBII-48Ca::GUS,dropped to near basal level
same,phenotype of transgenic tobacco plants,[1],severe stunting phenotype
same,cross-sections of the stem of transgenic plants,[1],xylem of stunted plants was not uniformly lignified and that phloem development was altered
